The text below walks through data of the supplement of paper PMC10567573.

B1: SETD8 (parent)
chain: KKAQGKTQQNRKLTDFYPVRRSSR
B2: RSPH3 (parent)
chain: MTVKPAKAASLARNLAKRRRTYLG
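Note: lentivirally expressed fusions sorted by FACS into six bins by GFP to DsRed ratio, PSI derived from sequencing read proportions per bin multiplied by bin number.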

Variants of B1 are the subject of the first data set. Briefly: protein stability index of a GFP-peptide fusion (GPS, HEK-293T) (PSI 1-6); higher = more stable. Particulars: c terminus: a fixed tail appended.
With KKAKGKTQQNRKLTDFYPVRRSSR [Q4K], the protein stability index stood at 3.35.
Regarding KKAGGKTQQNRKLTDFYPVRRSSR [Q4G], the protein stability index came to 2.22.
Still for that read-out and setting: to KKAYGKTQQNRKLTDFYPVRRSSR [Q4Y] belongs 2.18; to KKAEGKTQQNRKLTDFYPVRRSSR [Q4E], 1.68.
With KKAHGKTQQNRKLTDFYPVRRSSR [Q4H], the protein stability index came to 2.73.
On the same count and under the same terms, to KKAVGKTQQNRKLTDFYPVRRSSR [Q4V] belongs 3.42; to KKARGKTQQNRKLTDFYPVRRSSR [Q4R], 1.99; to KKACGKTQQNRKLTDFYPVRRSSR [Q4C], 1.64.
On the same count and under the same terms, in the case of KKATGKTQQNRKLTDFYPVRRSSR [Q4T] it was 1.87.
Still for that read-out and setting: in the case of KKADGKTQQNRKLTDFYPVRRSSR [Q4D] it was 4.69; in that of KKAIGKTQQNRKLTDFYPVRRSSR [Q4I], 3.18; in that of KKALGKTQQNRKLTDFYPVRRSSR [Q4L], 3.69.
In the case of KKASGKTQQNRKLTDFYPVRRSSR [Q4S], the protein stability index amounted to 1.13.
For the variant KKVQGKTQQNRKLTDFYPVRRSSR [A3V], the protein stability index stood at 3.41.
On the same count and under the same terms, in the case of KKIQGKTQQNRKLTDFYPVRRSSR [A3I] it was 2.84.
The same measure, in the same setting: to KKGQGKTQQNRKLTDFYPVRRSSR [A3G] belongs 3.27; to KKTQGKTQQNRKLTDFYPVRRSSR [A3T], 2.43.
As to KKRQGKTQQNRKLTDFYPVRRSSR [A3R], the protein stability index stood at 3.17.
Consider KKNQGKTQQNRKLTDFYPVRRSSR [A3N], for which the protein stability index turned out to be 3.12.
Still for that read-out and setting: in the case of KKEQGKTQQNRKLTDFYPVRRSSR [A3E] it was 3.01.
For KKYQGKTQQNRKLTDFYPVRRSSR [A3Y], the protein stability index came to 2.73.
For the variant KKSQGKTQQNRKLTDFYPVRRSSR [A3S], the protein stability index turned out to be 3.47.
Take KKKQGKTQQNRKLTDFYPVRRSSR [A3K]: the protein stability index came to 2.72.
The same measure, in the same setting: to KKQQGKTQQNRKLTDFYPVRRSSR [A3Q] belongs 2.4; to KKFQGKTQQNRKLTDFYPVRRSSR [A3F], 2.93; to KKLQGKTQQNRKLTDFYPVRRSSR [A3L], 3.96.
Take KKWQGKTQQNRKLTDFYPVRRSSR [A3W]: the protein stability index is 2.33.
Consider KKDQGKTQQNRKLTDFYPVRRSSR [A3D], for which the protein stability index was found to be 3.79.
The same measure, in the same setting: in the case of KIAQGKTQQNRKLTDFYPVRRSSR [K2I] it was 3.63; in that of KWAQGKTQQNRKLTDFYPVRRSSR [K2W], 3.07.
Take KDAQGKTQQNRKLTDFYPVRRSSR [K2D]: the protein stability index stood at 2.65.
The same measure, in the same setting: to KMAQGKTQQNRKLTDFYPVRRSSR [K2M] belongs 2.54; to KFAQGKTQQNRKLTDFYPVRRSSR [K2F], 1.97.
For the variant KHAQGKTQQNRKLTDFYPVRRSSR [K2H], the protein stability index came out at 3.35.
On to KLAQGKTQQNRKLTDFYPVRRSSR [K2L], for which the protein stability index stood at 1.57.
The same measure, in the same setting: in the case of KSAQGKTQQNRKLTDFYPVRRSSR [K2S] it was 2.12.
On the same count and under the same terms, in the case of KNAQGKTQQNRKLTDFYPVRRSSR [K2N] it was 2.56; in that of KPAQGKTQQNRKLTDFYPVRRSSR [K2P], 2.13.
As for KTAQGKTQQNRKLTDFYPVRRSSR [K2T], the protein stability index came to 3.1.
Turning to KGAQGKTQQNRKLTDFYPVRRSSR [K2G], the protein stability index came out at 3.04.
As to KQAQGKTQQNRKLTDFYPVRRSSR [K2Q], the protein stability index was found to be 1.83.
For the variant KYAQGKTQQNRKLTDFYPVRRSSR [K2Y], the protein stability index was 2.43.
Still for that read-out and setting: to KRAQGKTQQNRKLTDFYPVRRSSR [K2R] belongs 2.03; to TKAQGKTQQNRKLTDFYPVRRSSR [K1T], 2.62.
With RKAQGKTQQNRKLTDFYPVRRSSR [K1R], the protein stability index worked out at 2.24.
On the same count and under the same terms, in the case of GKAQGKTQQNRKLTDFYPVRRSSR [K1G] it was 1.81.
For MKAQGKTQQNRKLTDFYPVRRSSR [K1M], the protein stability index is 2.54.
The same measure, in the same setting: to CKAQGKTQQNRKLTDFYPVRRSSR [K1C] belongs 1.22; to NKAQGKTQQNRKLTDFYPVRRSSR [K1N], 2.13; to IKAQGKTQQNRKLTDFYPVRRSSR [K1I], 4.17.
For the variant SKAQGKTQQNRKLTDFYPVRRSSR [K1S], the protein stability index is 2.88.
HKAQGKTQQNRKLTDFYPVRRSSR [K1H]: the protein stability index was found to be 1.54.
Regarding VKAQGKTQQNRKLTDFYPVRRSSR [K1V], the protein stability index worked out at 2.73.
Take WKAQGKTQQNRKLTDFYPVRRSSR [K1W]: the protein stability index was determined as 2.09.
As for FKAQGKTQQNRKLTDFYPVRRSSR [K1F], the protein stability index amounted to 2.11.
Turning to EKAQGKTQQNRKLTDFYPVRRSSR [K1E], the protein stability index is 1.97.
For the variant QKAQGKTQQNRKLTDFYPVRRSSR [K1Q], the protein stability index worked out at 1.99.
LKAQGKTQQNRKLTDFYPVRRSSR [K1L]: the protein stability index was 4.04.
Still for that read-out and setting: in the case of KKAQIKTQQNRKLTDFYPVRRSSR [G5I] it was 1.68; in that of KKAQAKTQQNRKLTDFYPVRRSSR [G5A], 1.87; in that of KKAQEKTQQNRKLTDFYPVRRSSR [G5E], 2.89.
Take KKAQDKTQQNRKLTDFYPVRRSSR [G5D]: the protein stability index stood at 2.89.
Same read-out and setting: in the case of KKAQHKTQQNRKLTDFYPVRRSSR [G5H] it was 1.83.

Variants of B2 are the subject of a further data set. Described as above. Particulars: c terminus: a fixed tail appended.
As to MTVKPAKAASLARNLAKRRRMYLG [T21M], the protein stability index stood at 2.7.
Turning to MTVKPAKAASLARNLAKRRRLYLG [T21L], the protein stability index stood at 2.98.
For MTVKPAKAASLARNLAKRRRYYLG [T21Y], the protein stability index is 2.13.
Consider MTVKPAKAASLARNLAKRRRFYLG [T21F], for which the protein stability index was 1.93.
For the variant MTVKPAKAASLARNLAKRRRCYLG [T21C], the protein stability index came out at 2.73.
For MTVKPAKAASLARNLAKRRRDYLG [T21D], the protein stability index came to 3.59.
Consider MTVKPAKAASLARNLAKRRRWYLG [T21W], for which the protein stability index amounted to 1.77.
Take MTVKPAKAASLARNLAKRRRAYLG [T21A]: the protein stability index worked out at 3.09.
With MTVKPAKAASLARNLAKRRRGYLG [T21G], the protein stability index was 2.83.
The same measure, in the same setting: to MTVKPAKAASLARNLAKRRRPYLG [T21P] belongs 2.92; to MTVKPAKAASLARNLAKRRRKYLG [T21K], 3.9.
Still for that read-out and setting: to MTVKPAKAASLARNLAKRRRNYLG [T21N] belongs 2.98; to MTVKPAKAASLARNLAKRRRVYLG [T21V], 2.83; to MTVKPAKAASLARNLAKRRRSYLG [T21S], 3.26.
Same read-out and setting: to MTVKPAKAASLARNLAKRRRIYLG [T21I] belongs 2.54; to MTVKPAKAASLARNLAKRRREYLG [T21E], 3.47; to MTVKPAKAASLARNLAKRRRHYLG [T21H], 2.79.
MTVKPAKAASLARNLAKRRRRYLG [T21R]: the protein stability index was found to be 3.18.
The same measure, in the same setting: to MTVKPAKAASLARNLAKRRRQYLG [T21Q] belongs 3.21; to MTVKPAKAASLARNLAKMRRTYLG [R18M], 2.38.
The same measure, in the same setting: to MTVKPAKAASLARNLAKKRRTYLG [R18K] belongs 2.55; to MTVKPAKAASLARNLAKIRRTYLG [R18I], 2.63.
On to MTVKPAKAASLARNLAKVRRTYLG [R18V], for which the protein stability index stood at 2.91.
As for MTVKPAKAASLARNLAKSRRTYLG [R18S], the protein stability index was found to be 2.96.
Consider MTVKPAKAASLARNLAKNRRTYLG [R18N], for which the protein stability index came out at 2.31.
Same read-out and setting: to MTVKPAKAASLARNLAKYRRTYLG [R18Y] belongs 2.27; to MTVKPAKAASLARNLAKPRRTYLG [R18P], 2.38; to MTVKPAKAASLARNLAKHRRTYLG [R18H], 2.91.
The same measure, in the same setting: to MTVKPAKAASLARNLAKTRRTYLG [R18T] belongs 2.73.
With MTVKPAKAASLARNLAKLRRTYLG [R18L], the protein stability index turned out to be 2.55.
On the same count and under the same terms, to MTVKPAKAASLARNLAKQRRTYLG [R18Q] belongs 2.52.
